In US20120107297A1 (KOREA RESEARCH INSTITUTE OF BIOSCIENCE AND BIOTECHNOLOGY, published 2012):

B1: UCP (endogenous E2EPF ubiquitin carrier protein) (enzyme, human, UniProt Q16763 1-222, looked up)
chain: MNSNVENLPPHIIRLVYKEVTTLTADPPDGIKVFPNEEDLTDLQVTIEGPEGTPYAGGLFRMKLLLGKDFPASPPKGYFLTKIFHPNVGANGEICVNVLKRDWTAELGIRHVLLTIKCLLIHPNPESALNEEAGRLLLENYEEYAARARLLTEIHGGAGGPSGRAEAGRALASGTEASSTDPGAPGGPGGAEGPMAKKHAGERDKKLAAKKKTDKKRALRRL
notes: Endogenous protein in cell lysates; also called E2EPF-UCP; endogenous UCP
B2: Elongin B (endogenous) (other, human, UniProt Q15370 1-118, looked up)
chain: MDVFLMIRRHKTTIFTDAKESSTVFELKRIVEGILKRPPDEQRLYKDDQLLDDGKTLGECGFTSQTARPQAPATVGLAFRADDTFEALCIEPFSSPPELPDVMKPQDSGSSANEQAVQ

What was measured:
Elongin C (endogenous) = Elongin C (endogenous) (human, UniProt Q15369 1-112); assay: summary sentence citing FIG. 7 and FIG. 8b
Sequence of Elongin C (endogenous) (Q15369 whole entry): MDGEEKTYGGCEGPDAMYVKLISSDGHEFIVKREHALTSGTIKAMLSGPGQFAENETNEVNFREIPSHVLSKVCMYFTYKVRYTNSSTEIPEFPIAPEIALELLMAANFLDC
Procedure: (§1) CAKI (kidney cancer cell line) or HepG2 (liver cancer cell line) cells were collected from 10 100 mm culture dishes and frozen at −70° C. The frozen cells were lysed in 0.5 ml of a cell lysis buffer (50 mM Tris, 0.5 mM EDTA, 50 mM KCl, 10% glycerol, 1 mM DTT, 0.5% NP-40, 0.5 mM PMSF). The cell lysate was loaded in 10 ml of 5%-20% sucrose density gradient solution, followed by ultra-centrifugation at 35,000 rpm for 16 hours.

Rbx1 (endogenous) = Rbx1 (endogenous) (human, UniProt P62877 1-108); assay: summary sentence citing FIG. 7 and FIG. 8b
Sequence of Rbx1 (endogenous) (P62877 whole entry): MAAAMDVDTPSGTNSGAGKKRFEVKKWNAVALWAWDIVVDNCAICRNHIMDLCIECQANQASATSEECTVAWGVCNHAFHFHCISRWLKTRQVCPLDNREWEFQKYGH
Procedure: as §1

[1] = target: T1, VHL E3 ligase complex (comprising VHL, Elongin B, Elongin C and Rbx1) (human, UniProt P40337 1-213; Q15370 1-118; Q15369 1-112; P62877 1-108); assay: sucrose density gradient centrifugation of cell lysate, Western blot of fractions
T1 construct: also called VHL E3 ubiquitin ligase complex
T1 sequence (P40337 whole entry, chain 1 of 3): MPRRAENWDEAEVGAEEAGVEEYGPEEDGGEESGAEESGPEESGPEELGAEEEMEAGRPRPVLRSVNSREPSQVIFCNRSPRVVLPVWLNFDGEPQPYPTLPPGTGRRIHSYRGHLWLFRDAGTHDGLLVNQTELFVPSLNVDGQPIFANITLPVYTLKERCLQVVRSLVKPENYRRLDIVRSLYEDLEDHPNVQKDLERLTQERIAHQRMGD
T1 sequence (Q15369 whole entry, chain 3 of 3): as the sequence (Q15369 whole entry) above
T1 sequence (P62877 whole entry, chain 4 of 3): as the sequence (P62877 whole entry) above
Procedure: as §1

[2] = target: B1; assay: summary sentence citing FIG. 7 and FIG. 8b
Procedure: as §1

Binder	binding result (Elongin C (endogenous))	binding result (Rbx1 (endogenous))	binding result [1]	binding result [2]
B1	no binding	no binding	no binding	
B2				no binding
